Patent US20170266254A1 (AILERON THERAPEUTICS, published 2017)
Residue numbers refer to the chain shown, from its start. Bridges are numbered along the chain shown (N, C = ends). [ ]: non-standard residue; d: D form. S5 = C=CCCC[C@](C)(N)C(=O)O

B1: SP37 (peptide)
peptide: LGANDELISFADEGAQEEKSSNNSSAARDLADVKSSLV
modifications: not fully specified; N-terminal acetyl; C-terminal amide; $ = (S)-alpha-(2'-pentenyl)alanine at positions 11 and 15 (first crosslink) and 27 and 31 (second crosslink), each pair joined by an all-carbon crosslinker with one double bond
B2: SP24 (peptide)
peptide: Ac-LGANAELISFKDEGEQEEKSSENSSAERDLADVKSSLV-NH2
notes: Linear, not crosslinked; differs from SP14 by Asp to Ala at the fifth residue of the peptide
B3: SP27 (peptide)
peptide: Ac-LGANDELISFK[S5]EGE[S5]EEKSSNNSSAERDLADVKSSLV-NH2
modifications: staple 12-16
SMILES: CC[C@H](C)[C@H](NC(=O)[C@H](CC(C)C)NC(=O)[C@H](CCC(=O)O)NC(=O)[C@H](CC(=O)O)NC(=O)[C@H](CC(N)=O)NC(=O)[C@H](C)NC(=O)CNC(=O)[C@H](CC(C)C)NC(C)=O)C(=O)N[C@@H](CO)C(=O)N[C@@H](Cc1ccccc1)C(=O)N[C@@H](CCCCN)C(=O)N[C@@]1(C)CCCC=CCCC[C@@](C)(C(=O)N[C@@H](CCC(=O)O)C(=O)N[C@@H](CCC(=O)O)C(=O)N[C@@H](CCCCN)C(=O)N[C@@H](CO)C(=O)N[C@@H](CO)C(=O)N[C@@H](CC(N)=O)C(=O)N[C@@H](CC(N)=O)C(=O)N[C@@H](CO)C(=O)N[C@@H](CO)C(=O)N[C@@H](C)C(=O)N[C@@H](CCC(=O)O)C(=O)N[C@@H](CCCNC(=N)N)C(=O)N[C@@H](CC(=O)O)C(=O)N[C@@H](CC(C)C)C(=O)N[C@@H](C)C(=O)N[C@@H](CC(=O)O)C(=O)N[C@H](C(=O)N[C@@H](CCCCN)C(=O)N[C@@H](CO)C(=O)N[C@@H](CO)C(=O)N[C@@H](CC(C)C)C(=O)N[C@H](C(N)=O)C(C)C)C(C)C)NC(=O)[C@H](CCC(=O)O)NC(=O)CNC(=O)[C@H](CCC(=O)O)NC1=O
B4: SP26 (peptide)
peptide: B1 peptide with A27E
modifications: not fully specified; N-terminal acetyl; C-terminal amide; $ = (S)-alpha-(2'-pentenyl)alanine at positions 11 and 15, joined by an all-carbon crosslinker with one double bond
B5: SP25 (peptide)
peptide: Ac-LGANAELISFKDEGEQEEKSSENSSAERDLADAKSSAV-NH2
notes: Linear, not crosslinked; differs from SP14 by Ala at peptide positions 5, 33 and 37
B6: SP23 (peptide)
peptide: Ac-SAE[S5]DLA[S5]VKSSLVNESEKR-NH2
modifications: staple 4-8
SMILES: CC(=O)N[C@@H](CO)C(=O)N[C@@H](C)C(=O)N[C@@H](CCC(=O)O)C(=O)N[C@@]1(C)CCCC=CCCC[C@@](C)(C(=O)N[C@H](C(=O)N[C@@H](CCCCN)C(=O)N[C@@H](CO)C(=O)N[C@@H](CO)C(=O)N[C@@H](CC(C)C)C(=O)N[C@H](C(=O)N[C@@H](CC(N)=O)C(=O)N[C@@H](CCC(=O)O)C(=O)N[C@@H](CO)C(=O)N[C@@H](CCC(=O)O)C(=O)N[C@@H](CCCCN)C(=O)N[C@@H](CCCNC(=N)N)C(N)=O)C(C)C)C(C)C)NC(=O)[C@H](C)NC(=O)[C@H](CC(C)C)NC(=O)[C@H](CC(=O)O)NC1=O

biological target: T1, C-terminally 6x Histidine-tagged Beta-Catenin (aa 134-668, 59 KD) (UniProt P35222 134-668); test: competitive fluorescence polarization, FAM-labelled linear probe as competitor, His-tagged beta-catenin 134-668
T1 construct: range 134-668; Armadillo repeat region
T1 sequence: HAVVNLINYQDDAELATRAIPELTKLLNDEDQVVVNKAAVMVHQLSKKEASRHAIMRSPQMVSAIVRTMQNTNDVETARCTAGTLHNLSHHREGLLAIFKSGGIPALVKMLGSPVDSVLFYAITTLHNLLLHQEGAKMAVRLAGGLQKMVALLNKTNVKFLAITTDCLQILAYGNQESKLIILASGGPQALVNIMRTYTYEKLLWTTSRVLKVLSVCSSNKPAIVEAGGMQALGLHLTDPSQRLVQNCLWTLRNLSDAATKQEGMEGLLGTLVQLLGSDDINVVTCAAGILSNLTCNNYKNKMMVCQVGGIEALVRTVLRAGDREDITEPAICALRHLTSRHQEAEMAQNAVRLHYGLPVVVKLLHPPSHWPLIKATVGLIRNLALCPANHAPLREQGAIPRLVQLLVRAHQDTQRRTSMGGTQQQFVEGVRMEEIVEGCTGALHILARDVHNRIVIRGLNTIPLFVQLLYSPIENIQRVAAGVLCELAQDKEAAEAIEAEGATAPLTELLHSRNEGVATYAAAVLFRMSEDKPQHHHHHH
Description: The following experiments are performed at room temperature unless otherwise noted. First, an assay buffer is prepared composed of 25 mM Tris-Hcl pH 7.5, 200 mM Sodium Chloride, and 5 mM CHAPS. Next, 1M DTT is added to assay buffer to a final concentration of 2 mM. […] Forty μl of this protein stock is added to all but six wells of a 96 well plate (which will serve as the free peptide and Blank). Test competitor peptides are diluted from 1 mM DMSO stocks to 2× working stocks in assay buffer. Further dilutions are made in assay buffer-DMSO as to maintain a constant DMSO concentration in all wells. The dilution is carried out such that the peptides have a working concentration range of 40 μM-0.7 μM (2×). As a benchmark, a linear, non-crosslinked peptide competitor is prepared as above but with a working concentration range of 13-0.7 μM. Fifty μl of the competitor 2× stocks are added to the 40 μl of protein solution previously transferred into the assay 96 well plate. Next, a 10× stock of the fluorescent probe is prepared. The probe is identical to the linear benchmark peptide except for the n-terminal conjugation of a FAM flourophore with Beta-Alanine spacer. A 1 mM DMSO stock of the probe is serially diluted to a final concentration of 25 nM (10×) and 10 μl of this stock is added to all wells except for those that will serve as the blank. The assay plate is stored in the dark and the reaction is allowed to run at room temperature for three hours. The reaction is then read on a Biotek Synergy 2 with the following settings: 100 ms delay, 40 measurements per well, with excitation filters of […], and emission filters of […]. Data is then analyzed in Graphpad Prism.

Binder	IC50 [nM]
B1	56
B2	≥ 100000
B3	158
B4	42
Ac-LGANDELISFKDEGEQEEKSSENSSAERDLADVKSSLV-NH2 (Linear, not crosslinked) [SP14]	95
B5	≥ 100000
B6	≥ 100000
